# T1: alpha fetoprotein (AFP) (UniProt P02771 19-609)
# T1 sequence: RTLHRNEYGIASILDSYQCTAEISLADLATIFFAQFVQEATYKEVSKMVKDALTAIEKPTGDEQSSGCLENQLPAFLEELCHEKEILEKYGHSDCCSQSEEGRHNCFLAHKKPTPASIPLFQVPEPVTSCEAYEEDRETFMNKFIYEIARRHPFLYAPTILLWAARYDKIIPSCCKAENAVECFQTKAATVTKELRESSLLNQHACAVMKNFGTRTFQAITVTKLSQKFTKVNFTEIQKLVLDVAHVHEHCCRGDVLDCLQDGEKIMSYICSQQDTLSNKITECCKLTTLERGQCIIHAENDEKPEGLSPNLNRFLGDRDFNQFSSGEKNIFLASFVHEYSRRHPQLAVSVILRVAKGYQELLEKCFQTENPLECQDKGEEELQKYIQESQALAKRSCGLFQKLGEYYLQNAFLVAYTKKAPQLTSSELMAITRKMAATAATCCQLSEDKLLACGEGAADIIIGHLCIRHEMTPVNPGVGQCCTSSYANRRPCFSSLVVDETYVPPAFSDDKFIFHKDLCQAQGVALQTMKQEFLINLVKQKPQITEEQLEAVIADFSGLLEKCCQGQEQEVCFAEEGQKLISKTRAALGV
# T2: C-reactive protein (CRP) (UniProt P02741 19-224)
# T2 sequence: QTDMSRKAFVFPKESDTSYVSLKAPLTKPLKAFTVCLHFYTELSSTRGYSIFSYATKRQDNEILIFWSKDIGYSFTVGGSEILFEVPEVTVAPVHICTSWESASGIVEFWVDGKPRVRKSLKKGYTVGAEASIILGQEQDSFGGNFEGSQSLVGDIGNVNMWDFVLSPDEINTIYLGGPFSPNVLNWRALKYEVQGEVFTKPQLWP
# Key:
# [1] = target: carcinoembryonic antigen (CEA) (UniProt P06731 35-685); assay: electrochemical aptasensor (DPV, CV, EIS); 1 pg/mL-1 ug/mL CEA; LOD 0.22 pg/mL (not a Kd); 0.01 M PBS (sodium phosphate) pH 7.4; BSA-blocked electrode; CEA incubation temperature and time not in the material; conditions: protein: commercial
# [2] = target: prostate-specific antigen (PSA) (UniProt P07288 25-261); assay: electrochemical aptasensor (MB peak current ratio); 10 ng/mL PSA; 0.01 M PBS (sodium phosphate) pH 7.4; BSA-blocked electrode; CEA incubation temperature and time not in the material; conditions: protein: commercial
# alpha fetoprotein (AFP) = target: T1, alpha fetoprotein (AFP); assay: electrochemical aptasensor (MB peak current ratio); 10 ng/mL AFP; 0.01 M PBS (sodium phosphate) pH 7.4; BSA-blocked electrode; CEA incubation temperature and time not in the material; conditions: protein: commercial
# C-reactive protein (CRP) = target: T2, C-reactive protein (CRP); assay: electrochemical aptasensor (MB peak current ratio); 10 ng/mL CRP; 0.01 M PBS (sodium phosphate) pH 7.4; BSA-blocked electrode; CEA incubation temperature and time not in the material; conditions: protein: commercial; chain copies: 5
# [3] = target: cancer antigen 15-3 (CA15-3) (UniProt P15941 24-1097); assay: electrochemical aptasensor (MB peak current ratio); 10 uU/mL CA15-3; 0.01 M PBS (sodium phosphate) pH 7.4; BSA-blocked electrode; CEA incubation temperature and time not in the material; conditions: protein: commercial
# cancer antigen 15-3 (CA15-3), sequence (P15941 24-1097): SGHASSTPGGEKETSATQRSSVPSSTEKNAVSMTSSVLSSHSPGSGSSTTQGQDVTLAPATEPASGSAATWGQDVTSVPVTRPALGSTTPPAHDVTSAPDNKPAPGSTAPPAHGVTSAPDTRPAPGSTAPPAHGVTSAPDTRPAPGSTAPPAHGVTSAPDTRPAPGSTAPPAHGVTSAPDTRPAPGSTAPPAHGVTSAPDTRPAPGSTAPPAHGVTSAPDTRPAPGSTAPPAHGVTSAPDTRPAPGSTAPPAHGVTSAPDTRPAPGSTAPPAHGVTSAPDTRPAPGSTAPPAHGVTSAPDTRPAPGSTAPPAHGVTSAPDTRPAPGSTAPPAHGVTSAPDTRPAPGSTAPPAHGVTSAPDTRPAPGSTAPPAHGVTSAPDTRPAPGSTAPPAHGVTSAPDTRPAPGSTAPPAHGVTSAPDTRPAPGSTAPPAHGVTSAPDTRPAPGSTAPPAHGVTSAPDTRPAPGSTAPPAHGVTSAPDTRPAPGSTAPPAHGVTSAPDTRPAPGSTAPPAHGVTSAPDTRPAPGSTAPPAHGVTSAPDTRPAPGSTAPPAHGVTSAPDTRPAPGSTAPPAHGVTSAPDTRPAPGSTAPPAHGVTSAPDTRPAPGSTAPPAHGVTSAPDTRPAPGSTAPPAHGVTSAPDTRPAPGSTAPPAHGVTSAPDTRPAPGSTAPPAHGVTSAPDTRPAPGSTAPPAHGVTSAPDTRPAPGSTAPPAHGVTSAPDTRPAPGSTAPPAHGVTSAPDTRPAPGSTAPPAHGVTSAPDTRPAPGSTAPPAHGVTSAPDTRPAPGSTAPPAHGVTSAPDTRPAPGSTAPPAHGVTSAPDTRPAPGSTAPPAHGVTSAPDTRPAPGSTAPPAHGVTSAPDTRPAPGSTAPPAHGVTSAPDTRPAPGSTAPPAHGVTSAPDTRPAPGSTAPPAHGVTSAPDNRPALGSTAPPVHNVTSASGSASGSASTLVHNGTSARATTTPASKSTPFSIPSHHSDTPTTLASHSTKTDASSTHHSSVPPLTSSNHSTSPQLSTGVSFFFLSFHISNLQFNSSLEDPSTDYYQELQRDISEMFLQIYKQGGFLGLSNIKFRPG
# carcinoembryonic antigen (CEA), sequence (P06731 35-685): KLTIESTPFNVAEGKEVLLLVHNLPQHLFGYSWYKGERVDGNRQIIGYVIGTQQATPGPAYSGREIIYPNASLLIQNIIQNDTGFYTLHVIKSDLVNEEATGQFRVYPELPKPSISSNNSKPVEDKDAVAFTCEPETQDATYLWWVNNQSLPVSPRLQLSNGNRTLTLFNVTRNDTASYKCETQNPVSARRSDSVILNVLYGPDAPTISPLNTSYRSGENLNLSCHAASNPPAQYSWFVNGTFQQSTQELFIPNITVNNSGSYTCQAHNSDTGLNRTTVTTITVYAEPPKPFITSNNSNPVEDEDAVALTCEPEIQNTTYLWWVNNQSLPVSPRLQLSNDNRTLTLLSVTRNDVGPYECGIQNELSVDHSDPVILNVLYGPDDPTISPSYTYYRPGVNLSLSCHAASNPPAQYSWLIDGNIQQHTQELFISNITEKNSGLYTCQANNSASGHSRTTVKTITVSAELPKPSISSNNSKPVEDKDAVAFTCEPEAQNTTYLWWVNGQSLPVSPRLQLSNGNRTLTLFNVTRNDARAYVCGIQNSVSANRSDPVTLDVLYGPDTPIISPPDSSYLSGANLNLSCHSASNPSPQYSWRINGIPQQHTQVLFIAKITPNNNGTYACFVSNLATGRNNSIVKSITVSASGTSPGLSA
# prostate-specific antigen (PSA), sequence (P07288 25-261): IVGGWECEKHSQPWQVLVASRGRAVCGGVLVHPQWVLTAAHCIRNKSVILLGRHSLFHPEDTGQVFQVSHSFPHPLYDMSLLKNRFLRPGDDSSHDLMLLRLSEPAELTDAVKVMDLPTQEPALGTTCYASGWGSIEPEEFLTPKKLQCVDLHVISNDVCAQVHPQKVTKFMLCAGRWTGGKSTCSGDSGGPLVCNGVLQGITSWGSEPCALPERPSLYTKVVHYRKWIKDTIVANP
binder,measurement,setting,value
"ATACAGCTTCAATT (ssDNA, 3'-NH2, immobilized via glutaraldehyde on amino-silica film) [CEA aptamer]",binding result,[1],binds
same,binding result,[2],no binding
same,binding result,alpha fetoprotein (AFP),no binding
same,binding result,C-reactive protein (CRP),no binding
same,binding result,[3],no binding

# Source: PMC10221436, “Reagentless Electrochemical Detection of Tumor Biomarker Based on Stable Confinement of Electrochemical Probe in Bipolar Silica Nanochannel Film”
